How the values were obtained:
apo-transferrin [1] = molecular target: T1, apo-transferrin (human, UniProt P02787 20-698); assay: SPR; conditions: plateau of the association phase, read off a plot
T1 construct: transferrin (serotransferrin), human, iron-free state; Several paragraphs and legends say only 'transferrin' where the text says apo-transferrin for the same panels; rows told of 'transferrin' alone are tied to this molecule; also called Tf; TRF; source: bought: Sigma (purity greater than 98%)

apo-transferrin [2] = molecular target: T1, apo-transferrin; assay: SPR; CM5 chip coupled with 100 RU of transferrin; binding molar ratio from the saturation RU of the flowing phase and the RU of the immobilised phase; conditions: for stoichiometry N: both partners purified
apo-transferrin [3] = molecular target: T1, apo-transferrin; assay: SPR; BIAcore 2000; apo-transferrin or holo-transferrin immobilised on a CM5 chip (~2000 RU); serial concentrations of thrombin, FXIIa, fibrinogen, AT, prothrombin or FXII in Tris–HCl buffer (20 mM, pH 7.4) at 10 μL/min
human α-thrombin (human) = human α-thrombin (human) (UniProt P00734)
apo-transferrin [4] = molecular target: T1, apo-transferrin; assay: SPR; transferrin with synthetic peptides (TH16, FX18, RCL19 and their scrambled controls); conditions: both partners purified

Molecule: wild-type thrombin (from UniProt P00734) R117A; R122A
- response (apo-transferrin [1]; 25 nM trace, parent: est. 9): 2.5 RU
- response (apo-transferrin [1]; 50 nM trace, parent: est. 14): 5.5 RU

Molecule: human α-thrombin (from UniProt P00734 364-622) (enzyme)
- stoichiometry N (transferrin per thrombin (molar ratio)) (apo-transferrin [2]): 1
- Kd (apo-transferrin [3]): 7.7 nM

Molecule: FXII (natural protein)
- Kd (apo-transferrin [3]): 40 nM
- koff (apo-transferrin [3]): 0.0012 s⁻¹
- kon (apo-transferrin [3]): 30000 M⁻¹ s⁻¹

Molecule: apo-transferrin (from UniProt P02787 20-698) (natural protein)
- enhancement of the enzymatic activity of thrombin (chromogenic substrate) by transferrin at 0.2, 1 and 5 μM (human α-thrombin (human)): 1.8 fold
- increase of fibrinopeptide A released from fibrinogen by thrombin after 30 min with transferrin at 0.2, 1 and 5 μM (RP-HPLC) (human α-thrombin (human)): 1.2 fold
- increase of fibrinopeptide B released from fibrinogen by thrombin after 30 min with transferrin at 0.2, 1 and 5 μM (RP-HPLC) (human α-thrombin (human)): 4.2 fold

B1: fibrinogen (natural protein)
chain 1: ADSGEGDFLAEGGGVRGPRVVERHQSACKDSDWPFCSDEDWNYKCPSGCRMKGLIDEVNQDFTNRINKLKNSLFEYQKNNKDSHSLTTNIMEILRGDFSSANNRDNTYNRVSEDLRSRIEVLKRKVIEKVQHIQLLQKNVRAQLVDMKRLEVDIDIKIRSCRGSCSRALAREVDLKDYEDQQKQLEQVIAKDLLPSRDRQHLPLIKMKPVPDLVPGNFKSQLQKVPPEWKALTDMPQMRMELERPGGNEITRGGSTSYGTGSETESPRNPSSAGSWNSGSSGPGSTGNRNPGSSGTGGTATWKPGSSGPGSTGSWNSGSSGTGSTGNQNPGSPRPGSTGTWNPGSSERGSAGHWTSESSVSGSTGQWHSESGSFRPDSPGSGNARPNNPDWGTFEEVSGNVSPGTRREYHTEKLVTSKGDKELRTGKEKVTSGSTTTTRRSCSKTVTKTVIGPDGHKEVTKEVVTSEDGSDCPEAMDLGTLSGIGTLDGFRHRHPDEAAFFDTASTGKTFPGFFSPMLGEFVSETESRGSESGIFTNTKESSSHHPGIAEFPSRGKSSSYSKQFTSSTSYNRGDSTFESKSYKMADEAGSEADHEGTHSTKRGHAKSRPVRGIHTSPLGKPSLSP
chain 2: QGVNDNEEGFFSARGHRPLDKKREEAPSLRPAPPPISGGGYRARPAKAAATQKKVERKAPDAGGCLHADPDLGVLCPTGCQLQEALLQQERPIRNSVDELNNNVEAVSQTSSSSFQYMYLLKDLWQKRQKQVKDNENVVNEYSSELEKHQLYIDETVNSNIPTNLRVLRSILENLRSKIQKLESDVSAQMEYCRTPCTVSCNIPVVSGKECEEIIRKGGETSEMYLIQPDSSVKPYRVYCDMNTENGGWTVIQNRQDGSVDFGRKWDPYKQGFGNVATNTDGKNYCGLPGEYWLGNDKISQLTRMGPTELLIEMEDWKGDKVKAHYGGFTVQNEANKYQISVNKYRGTAGNALMDGASQLMGENRTMTIHNGMFFSTYDRDNDGWLTSDPRKQCSKEDGGGWWYNRCHAANPNGRYYWGGQYTWDMAKHGTDDGVVWMNWKGSWYSMRKMSMKIRPFFPQQ
chain 3: YVATRDNCCILDERFGSYCPTTCGIADFLSTYQTKVDKDLQSLEDILHQVENKTSEVKQLIKAIQLTYNPDESSKPNMIDAATLKSRKMLEEIMKYEASILTHDSSIRYLQEIYNSNNQKIVNLKEKVAQLEAQCQEPCKDTVQIHDITGKDCQDIANKGAKQSGLYFIKPLKANQQFLVYCEIDGSGNGWTVFQKRLDGSVDFKKNWIQYKEGFGHLSPTGTTEFWLGNEKIHLISTQSAIPYALRVELEDWNGRTSTADYAMFKVGPEADKYRLTYAYFAGGDAGDAFDGFDFGDDPSDKFFTSHNGMQFSTWDNDNDKFEGNCAEQDGSGWWMNKCHAGHLNGVYYQGGTYSKASTPNGYDNGIIWATWKTRWYSMKKTTMKIIPFNRLTIGEGQQHHLGGAKQAGDV
notes: fibrinogen alpha chain; fibrinogen beta chain; fibrinogen gamma chain; the SPR and native gel methods say only 'fibrinogen'; also called factor I; source: bought: Cayman (16088); copies: + +
- stoichiometry N (apo-transferrin [2]): 4 apo-transferrin per fibrinogen (molar ratio)

B2: human α-FXIIa (enzyme)
chain 1: IPPWEAPKEHKYKAEEHTVVLTVTGEPCHFPFQYHRQLYHKCTHKGRPGPQPWCATTPNFDQDQRWGYCLEPKKVKDHCSKHSPCQKGGTCVNMPSGPHCLCPQHLTGNHCQKEKCFEPQLLRFFHKNEIWYRTEQAAVARCQCKGPDAHCQRLASQACRTNPCLHGGRCLEVEGHRLCHCPVGYTGAFCDVDTKASCYDGRGLSYRGLARTTLSGAPCQPWASEATYRNVTAEQARNWGLGGHAFCRNPDNDIRPWCFVLNRDRLSWEYCDLAQCQTPTQAAPPTPVSPRLHVPLMPAQPAPPKPQPTTRTPPQSQTPGALPAKREQPPSLTRNGPLSCGQRLRKSLSSMTR
chain 2: VVGGLVALRGAHPYIAALYWGHSFCAGSLIAPCWVLTAAHCLQDRPAPEDLTVVLGQERRNHSCEPCQTLAVRSYRLHEAFSPVSYQHDLALLRLQEDADGSCALLSPYVQPVCLPSGAARPSETTLCQVAGWGHQFEGAEEYASFLQEAQVPFLSLERCSAPDVHGSSILPGMLCAGFLEGGTDACQGDSGGPLVCEDQAAERRLTLQGIISWGSGCGDRNKPGVYTDVAYYLAWIREHTVS
notes: factor XIIa heavy chain, cut product of human factor XII; factor XIIa light chain (protease domain), cut product of human factor XII; also called factor XIIa; source: bought: Enzyme Research Laboratories (HFXIIa 1212a)
- stoichiometry N (apo-transferrin [2]): 1 transferrin per FXIIa (molar ratio)
- Kd (apo-transferrin [3]; both partners purified): 13.9 nM
- koff (apo-transferrin [3]; both partners purified): 0.0025 s⁻¹
- kon (apo-transferrin [3]; both partners purified): 180000 M⁻¹ s⁻¹

Molecule: RIGKHSRTRYERNIEK (source: synthetic peptide) [TH16]
- Kd (apo-transferrin [4]): 97 nM
- koff (apo-transferrin [4]): 0.0003 s⁻¹
- kon (apo-transferrin [4]): 3100 M⁻¹ s⁻¹

Molecule: RRNHSCEPCQTLAVRSYR (source: synthetic peptide) [FX18]
- Kd (apo-transferrin [4]): 143 nM
- koff (apo-transferrin [4]): 0.0004 s⁻¹
- kon (apo-transferrin [4]): 2800 M⁻¹ s⁻¹

B3: RCL19 (peptide)
peptide: EAAASTAVVIAGRSLNPNR
notes: from the reactive center loop (RCL) of antithrombin; also called synthetic peptide from the RCL of AT; source: synthetic peptide
- Kd (apo-transferrin [4]): 556 nM
- koff (apo-transferrin [4]): 0.001 s⁻¹
- kon (apo-transferrin [4]): 1800 M⁻¹ s⁻¹

— PMC7015052, “Transferrin plays a central role in coagulation balance by interacting with clotting factors” (Cell Research, 2019)
